Earlier results, collected in PMC2799686.

Biological target: DnaK (Escherichia coli) (UniProt P0A6Y8)
Experiment: competition

pyrrhocoricin, sequence (P37362 whole entry): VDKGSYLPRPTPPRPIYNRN
DnaK (Escherichia coli), sequence (P0A6Y8 2-638): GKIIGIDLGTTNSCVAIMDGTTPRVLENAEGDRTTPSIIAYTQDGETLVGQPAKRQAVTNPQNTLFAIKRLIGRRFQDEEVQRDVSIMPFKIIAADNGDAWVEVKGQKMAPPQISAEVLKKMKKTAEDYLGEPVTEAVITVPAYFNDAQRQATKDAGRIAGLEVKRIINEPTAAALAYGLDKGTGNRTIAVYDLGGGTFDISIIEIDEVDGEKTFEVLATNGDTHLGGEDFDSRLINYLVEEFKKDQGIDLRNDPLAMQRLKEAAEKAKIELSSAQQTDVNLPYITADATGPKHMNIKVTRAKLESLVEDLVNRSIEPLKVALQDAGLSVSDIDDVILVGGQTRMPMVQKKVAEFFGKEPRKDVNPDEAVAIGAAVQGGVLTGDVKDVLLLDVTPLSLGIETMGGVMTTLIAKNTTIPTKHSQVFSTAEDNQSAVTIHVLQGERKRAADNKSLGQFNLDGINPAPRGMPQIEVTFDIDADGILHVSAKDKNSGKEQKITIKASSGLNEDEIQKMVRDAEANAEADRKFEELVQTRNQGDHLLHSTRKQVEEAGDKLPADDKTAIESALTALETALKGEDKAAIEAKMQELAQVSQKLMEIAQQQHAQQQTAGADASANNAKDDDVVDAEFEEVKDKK

Kd: 50 µM
Substance: pyrrhocoricin (from UniProt P37362)
